According to US20090143308A1:

Experiments:
Assay in all cases: cell-based or functional assay
[1] = molecular target: Candida albicans Cdr1p as expressed in S. cerevisiae AD1002 (CDR1 of plasmid pKEN1002) (Candida albicans) (UniProt P43071)
[2] = molecular target: Saccharomyces cerevisiae Pdr5p (over-expressed in strain AD124567) (Saccharomyces cerevisiae) (UniProt P33302)
[3] = molecular target: S. cerevisiae plasma membrane H+-ATPase (Pma1p) (Saccharomyces cerevisiae) (UniProt P05030)
S. cerevisiae plasma membrane H+-ATPase (Pma1p) (Saccharomyces cerevisiae), sequence (P05030 whole entry): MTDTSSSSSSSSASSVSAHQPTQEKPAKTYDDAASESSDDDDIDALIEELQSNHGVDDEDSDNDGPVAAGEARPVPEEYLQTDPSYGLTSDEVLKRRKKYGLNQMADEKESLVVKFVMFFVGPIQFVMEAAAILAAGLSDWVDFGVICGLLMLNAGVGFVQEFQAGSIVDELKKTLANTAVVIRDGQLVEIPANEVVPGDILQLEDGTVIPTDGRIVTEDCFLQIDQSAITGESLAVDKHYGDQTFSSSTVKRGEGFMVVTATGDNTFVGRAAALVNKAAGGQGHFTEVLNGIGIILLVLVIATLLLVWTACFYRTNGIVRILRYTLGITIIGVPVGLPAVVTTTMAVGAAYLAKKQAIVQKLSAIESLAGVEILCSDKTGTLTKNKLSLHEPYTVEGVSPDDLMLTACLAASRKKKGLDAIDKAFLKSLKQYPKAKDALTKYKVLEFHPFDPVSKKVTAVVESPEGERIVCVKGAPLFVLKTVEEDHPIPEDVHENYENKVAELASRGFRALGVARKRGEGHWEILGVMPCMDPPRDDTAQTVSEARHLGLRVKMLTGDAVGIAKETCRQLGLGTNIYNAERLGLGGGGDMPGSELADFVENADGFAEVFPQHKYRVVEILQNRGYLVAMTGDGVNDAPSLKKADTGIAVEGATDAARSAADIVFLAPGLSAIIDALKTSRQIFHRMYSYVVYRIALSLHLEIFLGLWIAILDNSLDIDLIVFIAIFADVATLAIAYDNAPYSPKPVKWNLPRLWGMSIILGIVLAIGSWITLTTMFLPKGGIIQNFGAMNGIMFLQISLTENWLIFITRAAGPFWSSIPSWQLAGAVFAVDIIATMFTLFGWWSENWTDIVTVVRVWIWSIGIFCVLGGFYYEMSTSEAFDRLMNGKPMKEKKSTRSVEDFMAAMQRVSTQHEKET

Candida albicans Cdr1p as expressed in S. cerevisiae AD1002 (CDR1 of plasmid pKEN1002) (Candida albicans), sequence (P43071 whole entry): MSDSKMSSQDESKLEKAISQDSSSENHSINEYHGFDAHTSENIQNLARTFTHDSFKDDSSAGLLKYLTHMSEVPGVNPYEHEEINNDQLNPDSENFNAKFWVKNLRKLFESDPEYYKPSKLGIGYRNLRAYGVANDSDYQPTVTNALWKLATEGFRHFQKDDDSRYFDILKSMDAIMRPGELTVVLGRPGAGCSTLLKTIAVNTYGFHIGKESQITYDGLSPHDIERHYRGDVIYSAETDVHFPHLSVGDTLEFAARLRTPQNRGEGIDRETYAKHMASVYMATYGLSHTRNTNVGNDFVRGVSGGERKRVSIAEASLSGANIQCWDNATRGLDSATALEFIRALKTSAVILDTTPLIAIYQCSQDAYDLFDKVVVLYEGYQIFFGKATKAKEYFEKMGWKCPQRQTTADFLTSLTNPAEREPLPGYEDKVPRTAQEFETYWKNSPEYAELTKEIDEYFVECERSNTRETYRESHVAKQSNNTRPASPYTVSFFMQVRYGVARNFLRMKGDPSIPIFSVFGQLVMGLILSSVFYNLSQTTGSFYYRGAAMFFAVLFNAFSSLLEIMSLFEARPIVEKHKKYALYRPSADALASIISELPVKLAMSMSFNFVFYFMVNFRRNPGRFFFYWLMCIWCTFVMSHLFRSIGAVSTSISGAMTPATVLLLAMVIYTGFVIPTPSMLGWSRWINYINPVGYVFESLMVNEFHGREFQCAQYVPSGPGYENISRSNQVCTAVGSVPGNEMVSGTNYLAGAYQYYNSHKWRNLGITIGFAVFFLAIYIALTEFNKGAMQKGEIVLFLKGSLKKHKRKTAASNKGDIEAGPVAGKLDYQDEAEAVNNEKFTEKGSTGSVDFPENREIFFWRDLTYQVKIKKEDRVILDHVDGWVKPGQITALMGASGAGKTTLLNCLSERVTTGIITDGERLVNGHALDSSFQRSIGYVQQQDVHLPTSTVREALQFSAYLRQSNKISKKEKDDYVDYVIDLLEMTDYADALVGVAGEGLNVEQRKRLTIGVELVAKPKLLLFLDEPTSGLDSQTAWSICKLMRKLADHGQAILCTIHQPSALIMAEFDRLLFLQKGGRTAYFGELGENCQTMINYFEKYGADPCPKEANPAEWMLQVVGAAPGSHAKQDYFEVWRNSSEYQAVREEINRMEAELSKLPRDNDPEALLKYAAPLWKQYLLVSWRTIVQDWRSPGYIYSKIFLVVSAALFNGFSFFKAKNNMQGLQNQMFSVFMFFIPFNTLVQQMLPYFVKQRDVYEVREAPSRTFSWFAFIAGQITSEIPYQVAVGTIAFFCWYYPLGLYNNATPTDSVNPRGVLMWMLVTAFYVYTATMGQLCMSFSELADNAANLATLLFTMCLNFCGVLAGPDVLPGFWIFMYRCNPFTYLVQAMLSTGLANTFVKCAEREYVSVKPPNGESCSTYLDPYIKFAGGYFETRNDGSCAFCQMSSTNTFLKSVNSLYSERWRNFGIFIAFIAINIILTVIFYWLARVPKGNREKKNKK
Saccharomyces cerevisiae Pdr5p (over-expressed in strain AD124567) (Saccharomyces cerevisiae), sequence (P33302 whole entry): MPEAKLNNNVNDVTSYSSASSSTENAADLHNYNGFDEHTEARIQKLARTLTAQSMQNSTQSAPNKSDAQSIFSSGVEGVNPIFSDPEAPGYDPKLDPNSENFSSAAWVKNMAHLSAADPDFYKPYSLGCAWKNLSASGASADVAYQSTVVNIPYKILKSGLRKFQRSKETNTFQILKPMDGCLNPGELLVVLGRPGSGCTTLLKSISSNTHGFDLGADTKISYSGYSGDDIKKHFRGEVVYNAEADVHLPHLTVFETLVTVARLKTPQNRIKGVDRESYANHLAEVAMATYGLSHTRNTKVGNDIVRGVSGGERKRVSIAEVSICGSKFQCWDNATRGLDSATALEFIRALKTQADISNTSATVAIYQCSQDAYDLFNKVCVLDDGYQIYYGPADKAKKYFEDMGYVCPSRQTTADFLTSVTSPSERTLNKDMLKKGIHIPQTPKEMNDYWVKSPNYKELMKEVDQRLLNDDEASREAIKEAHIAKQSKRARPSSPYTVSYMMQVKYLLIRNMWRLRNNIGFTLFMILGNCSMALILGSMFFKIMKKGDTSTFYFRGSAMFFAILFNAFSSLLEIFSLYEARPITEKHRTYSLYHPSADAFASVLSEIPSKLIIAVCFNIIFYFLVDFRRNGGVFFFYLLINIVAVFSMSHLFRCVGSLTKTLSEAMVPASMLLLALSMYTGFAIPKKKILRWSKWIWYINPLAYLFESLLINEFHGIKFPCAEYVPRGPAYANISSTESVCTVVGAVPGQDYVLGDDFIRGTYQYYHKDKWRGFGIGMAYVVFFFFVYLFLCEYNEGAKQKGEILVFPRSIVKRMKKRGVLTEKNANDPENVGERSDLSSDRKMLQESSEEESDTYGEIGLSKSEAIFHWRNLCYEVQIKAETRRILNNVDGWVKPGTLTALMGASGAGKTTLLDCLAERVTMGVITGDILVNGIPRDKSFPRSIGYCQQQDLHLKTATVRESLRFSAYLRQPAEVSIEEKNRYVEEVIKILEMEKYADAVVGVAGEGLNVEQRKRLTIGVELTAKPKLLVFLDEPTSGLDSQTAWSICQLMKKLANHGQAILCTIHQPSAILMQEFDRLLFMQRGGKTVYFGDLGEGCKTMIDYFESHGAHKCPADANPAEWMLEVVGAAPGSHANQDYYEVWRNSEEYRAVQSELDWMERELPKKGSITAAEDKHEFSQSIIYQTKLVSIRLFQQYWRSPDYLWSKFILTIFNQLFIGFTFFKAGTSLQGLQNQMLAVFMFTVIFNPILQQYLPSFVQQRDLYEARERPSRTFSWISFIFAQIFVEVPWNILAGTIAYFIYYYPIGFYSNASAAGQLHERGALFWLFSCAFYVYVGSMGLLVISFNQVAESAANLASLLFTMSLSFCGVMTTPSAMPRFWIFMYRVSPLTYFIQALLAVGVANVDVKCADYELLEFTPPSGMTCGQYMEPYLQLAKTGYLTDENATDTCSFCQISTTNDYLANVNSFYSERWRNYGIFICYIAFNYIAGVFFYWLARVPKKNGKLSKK

Substance: KN20 (D-NH2-asparagine-tryptophan-tryptophan-lysine-valine-arginine-arginine-arginine-CONH2 with a single Mtr substituent) (peptide)
- fold higher inhibitory concentration for Cdr1p ATPase than for Pdr5p ATPase [1]: 2.7 fold
- inhibition of oligomycin sensitive ATPase activity of AD1002 plasma membranes (I50) [1]: 8 µM
- inhibition of oligomycin sensitive ATPase activity of plasma membranes from the AD124567 yeast strain overexpressing Pdr5p (I50) [2]: 3 µM
- inhibition of S. cerevisiae plasma membrane H+-ATPase (I50) [3]: 10 µM
